In article PMC2746283, “BtubA-BtubB Heterodimer Is an Essential Intermediate in Protofilament Assembly” (PLoS ONE, 2009):

Molecular target: T1, BtubA-E258K (P. dejongeii, UniProt Q8GCC5 1-473, E258K)
T1 construct: BtubA of Prosthecobacter dejongeii (GenBank AY186779) with the point mutation E258K; also called within-dimer mutant of BtubA; source: E. coli, purified as described previously [3], with an added Sephacryl HR-100 column step; not shown: His tag, N-terminal, kept
T1 sequence: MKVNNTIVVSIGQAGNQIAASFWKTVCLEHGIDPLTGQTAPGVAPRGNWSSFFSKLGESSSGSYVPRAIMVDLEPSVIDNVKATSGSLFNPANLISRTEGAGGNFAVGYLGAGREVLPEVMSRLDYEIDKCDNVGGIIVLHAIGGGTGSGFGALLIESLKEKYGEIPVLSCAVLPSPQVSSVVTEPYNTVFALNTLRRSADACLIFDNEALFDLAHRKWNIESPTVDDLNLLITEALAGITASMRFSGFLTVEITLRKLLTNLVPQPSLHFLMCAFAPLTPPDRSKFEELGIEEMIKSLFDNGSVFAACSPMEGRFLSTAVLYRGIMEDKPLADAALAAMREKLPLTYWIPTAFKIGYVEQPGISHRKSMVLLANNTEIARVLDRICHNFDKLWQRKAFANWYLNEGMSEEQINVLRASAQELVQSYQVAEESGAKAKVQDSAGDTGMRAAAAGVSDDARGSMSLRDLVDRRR
Test: AUC; sedimentation equilibrium of BtubA + BtubB mixtures, 20°C, 10,000-14,000 rpm, HMK buffer (50 mM Hepes, 5 mM MgAc, 350 mM KAc, 1 mM EGTA, pH 7.7), no GTP; molar ratios 1:4 to 4:1, each protein 8 to 32 µM; global fit to a monomer-dimer model (HeteroAnalysis)
Conditions: both partners purified

B1: BtubB-N100E (natural protein)
chain: VREILSIHVGQCGNQIADSFWRLALREHGLTEAGTLKEGSNAAANSNMEVFFHKVRDGKYVPRAVLVDLEPGVIARIEGGDMSQLFDESSIVRKIPGAAENWARGYNVEGEKVIDQIMNVIDSAVEKTKGLQGFLMTHSIGGGSGSGLGSLILERLRQAYPKKRIFTFSVVPSPLISDSAVEPYNAILTLQRILDNADGAVLLDNEALFRIAKAKLNRSPNYMDLNNIIALIVSSVTASLRFPGKLNTDLSEFVTNLVPFPGNHFLTASFAPMRGAGQEGQVRTNFPDLARETFAQDNFTAAIDWQQGVYLAASALFRGDVKAKDVDENMATIRKSLNYASYMPASGGLKLGYAETAPEGFASSGLALVNHTGIAAVFERLIAQFDIMFDNHAYTHWYENAGVSRDMMAKARNQIATLAQSYRDAS
notes: BtubB of Prosthecobacter (species printed only for BtubA: P. dejongeii) with the point mutation N100E; also called within-dimer mutant of BtubB; source: E. coli, purified as described previously [3], with an added Sephacryl HR-100 column step; not shown: His tag, N-terminal, kept
For B1, the Kd was 61 µM.
